Earlier results, collected in article PMC7094366.

Target: SARS-CoV 3C-like proteinase (Severe acute respiratory syndrome coronavirus) (UniProt P0C6X7)

## SARS-CoV 3C-like proteinase (from UniProt P0C6X7)
  Kd: 100 µM
